Test results from the supplement of paper PMC10724198.
± gives the standard deviation of the averaged measurements.

Test system: Saccharomyces cerevisiae
Experiment: protein stability index of tFT-peptide fusion (C-terminal peptide) (PSI (0-1 scale)); higher = more stable (slower turnover)
Conditions: temperature: 30 C
Procedure: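 MPS profiling in S. cerevisiae of the yeast C-terminome library: the last 12 aa of each annotated ORF are fused to the C-terminus of a sfGFP-mCherry timer, after a GGGS linker. Cells are FACS-sorted into 8 mCherry/sfGFP bins and deep-sequenced. PSI runs from 0 (unstable) to 1 (stable); wild type and das1Δ backgrounds, two technical replicates each.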

[1] = genetic background: das1 deletion

Row | Sequence | protein stability index [1] | protein stability index (genetic background: wild type)
1 | IFYLRFPSYIRG [YJR151W-A C-terminal 12 aa] | 0.614 ± 0.017 | 0.615 ± 0.0023
2 | QTSKGPENLQFS [RAD53 C-terminal 12 aa] | 0.71 ± 0.05 | 0.723 ± 0.018
3 | PLSKMEDQVFVF [CBR1 C-terminal 12 aa] | 0.663 ± 0.036 | 0.657 ± 0.027
4 | VQEWEVLGRVDV [CPD1 C-terminal 12 aa] | 0.724 ± 0.014 | 0.692 ± 0.022
5 | QDYVKDRHHGLK [NUP157 C-terminal 12 aa] | 0.698 ± 0.01 | 0.679 ± 0.043
6 | SIVYSWKENSSS [YGL217C C-terminal 12 aa] | 0.704 ± 0.031 | 0.703 ± 0.015
7 | PENGSLFEFDDN [SNU66 C-terminal 12 aa] | 0.6962 ± 0.005 | 0.6836 ± 0.0039
8 | GAGIMALIGKWA [ZRT1 C-terminal 12 aa] | 0.687 ± 0.017 | 0.661 ± 0.022
9 | MKGYGFEVPSAN [COX17 C-terminal 12 aa] | 0.6984 ± 0.0041 | 0.663 ± 0.0067
10 | ESGPSIVHHKCF [ACT1 C-terminal 12 aa] | 0.6875 ± 0.003 | 0.6963 ± 0.0026
11 | GETDSKIKYKYR [SND2 C-terminal 12 aa] | 0.712 ± 0.06 | 0.573 ± 0.026
12 | AQGGFAQWATGQ [APS3 C-terminal 12 aa] | 0.718 ± 0.0089 | 0.683 ± 0.04
13 | AYEPFSFRAIIE [STV1 C-terminal 12 aa] | 0.686 ± 0.008 | 0.723 ± 0.035
14 | SFRPKSSNNPFR [ENT4 C-terminal 12 aa] | 0.734 ± 0.02 | 0.674 ± 0.021
15 | LLEDIRANYSLN [YLL056C C-terminal 12 aa] | 0.681 ± 0.012 | 0.692 ± 0.028
16 | KAIEYFEEYQSW [FRE3 C-terminal 12 aa] | 0.721 ± 0.021 | 0.6952 ± 0.0065
17 | KSARSWVRSGRL [YPR053C C-terminal 12 aa] | 0.80266 ± 0.00042 | 0.77 ± 0.013
18 | YAPDVVRSLENL [RRP42 C-terminal 12 aa] | 0.7271 ± 0.0014 | 0.695 ± 0.043
19 | KNFKTDLSSSSL [SMK1 C-terminal 12 aa] | 0.7 ± 0.0086 | 0.711 ± 0.014
20 | EEANEDEEEDDW [MYO5 C-terminal 12 aa] | 0.6825 ± 0.0025 | 0.706 ± 0.015
21 | HNPSLWSCIFGK [SWS2 C-terminal 12 aa] | 0.716 ± 0.02 | 0.714 ± 0.029

Row | Sequence | protein stability index [1] | protein stability index (genetic background: wild type)
22 | CAAVEKGPILDA [THI74 C-terminal 12 aa] | 0.691 ± 0.019 | 0.682 ± 0.021
23 | IELWETFYQTNL [VPS5 C-terminal 12 aa] | 0.745 ± 0.011 | 0.7177 ± 0.0056
24 | NTEQAYSQPFRY [NVJ1 C-terminal 12 aa] | 0.702 ± 0.021 | 0.722 ± 0.016
25 | EAAKKSEKKAKK [RPL34A C-terminal 12 aa] | 0.695 ± 0.0092 | 0.689 ± 0.023
26 | FTLVDYDKKFHK [ADH7 C-terminal 12 aa] | 0.702 ± 0.043 | 0.78 ± 0.087
27 | KDWLIKTRKTSL [TVS1 C-terminal 12 aa] | 0.707 ± 0.013 | 0.693 ± 0.011
28 | VPGGKKTPTEAL [LSM5 C-terminal 12 aa] | 0.6817 ± 0.0014 | 0.707 ± 0.026
29 | ERAYMYYLRNGK [NAM9 C-terminal 12 aa] | 0.656 ± 0.023 | 0.625 ± 0.021
30 | EEGEVVEEEAEK [HSP78 C-terminal 12 aa] | 0.678 ± 0.022 | 0.6852 ± 0.0044
31 | PRGQDTEDHILE [PIF1 C-terminal 12 aa] | 0.725 ± 0.02 | 0.692 ± 0.0098
32 | IKLARRLRGERS [YBR010W; YNL031C C-terminal 12 aa] | 0.6941 ± 0.0047 | 0.68 ± 0.012
33 | EVEKIVKKVLKD [DBP5 C-terminal 12 aa] | 0.7225 ± 0.0038 | 0.6553 ± 0.0058
34 | ALSKDGIYTITN [PAU13 C-terminal 12 aa] | 0.706 ± 0.027 | 0.679 ± 0.014
35 | IKLIDFNETSLT [MCM22 C-terminal 12 aa] | 0.68 ± 0.008 | 0.675 ± 0.0072
36 | SGKLASKKRDKK [MRPL36 C-terminal 12 aa] | 0.684 ± 0.021 | 0.651 ± 0.019
37 | YLAFRLREFNKL [RSC1 C-terminal 12 aa] | 0.787 ± 0.05 | 0.726 ± 0.049
38 | HWLQLKPGQPMY [MF(ALPHA)1 C-terminal 12 aa] | 0.7177 ± 0.0044 | 0.6822 ± 0.0032
39 | TRMSSPPPSTSS [SET2 C-terminal 12 aa] | 0.695 ± 0.023 | 0.6896 ± 0.0047
40 | GKGAIDGFFKRK [RNH202 C-terminal 12 aa] | 0.694 ± 0.03 | 0.6575 ± 0.004
41 | SHPIDVNLQFIM [MCA1 C-terminal 12 aa] | 0.735 ± 0.013 | 0.689 ± 0.039
